Reference: patent US20230391888A1 (Sanofi, published 2023)

T1: human CD123-Fc-His fusion protein (internal source) (human, UniProt P26951 19-305)
T1 construct: not shown: Fc and His tag
T1 sequence (looked up): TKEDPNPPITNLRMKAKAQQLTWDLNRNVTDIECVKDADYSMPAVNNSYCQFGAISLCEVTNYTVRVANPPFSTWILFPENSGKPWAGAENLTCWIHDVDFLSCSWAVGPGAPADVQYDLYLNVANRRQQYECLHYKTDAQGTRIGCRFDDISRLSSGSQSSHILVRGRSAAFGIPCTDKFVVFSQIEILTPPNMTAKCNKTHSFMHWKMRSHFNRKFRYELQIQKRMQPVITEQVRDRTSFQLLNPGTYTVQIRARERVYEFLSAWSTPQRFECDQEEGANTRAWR

B1: anti-CD3ε × anti-CD123 Wild Type (ID 33) (bispecific antibody)
light 1: not shown
heavy 1: not shown
heavy 2: EVQLQQSGPELVKPGASVKMSCKASGYTFTDYYMKWVKQSHGKSLEWIGDIIPSNGATFYNQKFKGKATLTVDRSSSTAYMHLNSLTSEDSAVYYCTRSHLLRASWFAYWGQGTLVTVSAASTKGPSVFPLAPSSKSTSGGTAALGCLVKDYFPEPVTVSWNSGALTSGVHTFPAVLQSSGLYSLSSVVTVPSSSLGTQTYICNVNHKPSNTKVDKKVEPKSCDKTHTCPPCPAPEAAGGPSVFLFPPKPKDTLMISRTPEVTCVVVDVSHEDPEVKFNWYVDGVEVHNAKTKPREEQYNSTYRVVSVLTVLHQDWLNGKEYKCKVSNKALPAPIEKTISKAKGQPREPQVCTLPPSRDELTKNQVSLSCAVKGFYPSDIAVEWESNGQPENNYKTTPPVLDSDGSFFLVSKLTVDKSRWQQGNVFSCSVMHEALHNRFTQKSLSLSPG
light 2: DFVMTQSPSSLTVTAGEKVTMSCKSSQSLLNSGNQKNYLTWYLQKPGQPPKLLIYWASTRESGVPDRFTGSGSGTDFTLTISSVQAEDLAVYYCQNDYSYPYTFGGGTKLEIKRTVAAPSVFIFPPSDEQLKSGTASVVCLLNNFYPREAKVQWKVDNALQSGNSQESVTEQDSKDSTYSLSSTLTLSKADYEKHKVYACEVTHQGLSSPVTKSFNRGEC
notes: Wild type bispecific IgG (first anti-CD3ε arm)
B2: anti-TNP × anti-CD123 Negative control Wild Type (ID 42) (bispecific antibody)
light 1: DVVMTQSPLSLPVTLGQPASISCRSSQSLVHSIGNTYLHWYQQRPGQSPRLLIYKVSNRFSGVPDRFSGSGSGTDFTLKISRVEAEDVGVYYCSQSTHVPFTFGQGTKLEIKRTVAAPSVFIFPPSDEQLKSGTASVVCLLNNFYPREAKVQWKVDNALQSGNSQESVTEQDSKDSTYSLSSTLTLSKADYEKHKVYACEVTHQGLSSPVTKSFNRGEC
heavy 1: not shown
heavy 2: EVQLQQSGPELVKPGASVKMSCKASGYTFTDYYMKWVKQSHGKSLEWIGDIIPSNGATFYNQKFKGKATLTVDRSSSTAYMHLNSLTSEDSAVYYCTRSHLLRASWFAYWGQGTLVTVSAASTKGPSVFPLAPSSKSTSGGTAALGCLVKDYFPEPVTVSWNSGALTSGVHTFPAVLQSSGLYSLSSVVTVPSSSLGTQTYICNVNHKPSNTKVDKKVEPKSCDKTHTCPPCPAPEAAGGPSVFLFPPKPKDTLMISRTPEVTCVVVDVSHEDPEVKFNWYVDGVEVHNAKTKPREEQYNSTYRVVSVLTVLHQDWLNGKEYKCKVSNKALPAPIEKTISKAKGQPREPQVCTLPPSRDELTKNQVSLSCAVKGFYPSDIAVEWESNGQPENNYKTTPPVLDSDGSFFLVSKLTVDKSRWQQGNVFSCSVMHEALHNRFTQKSLSLSPG
light 2: DFVMTQSPSSLTVTAGEKVTMSCKSSQSLLNSGNQKNYLTWYLQKPGQPPKLLIYWASTRESGVPDRFTGSGSGTDFTLTISSVQAEDLAVYYCQNDYSYPYTFGGGTKLEIKRTVAAPSVFIFPPSDEQLKSGTASVVCLLNNFYPREAKVQWKVDNALQSGNSQESVTEQDSKDSTYSLSSTLTLSKADYEKHKVYACEVTHQGLSSPVTKSFNRGEC
B3: anti-CD3ε-dsTrasKO2 × anti-CD123 (ID 35) (bispecific antibody)
light 1: not shown
heavy 1: not shown
heavy 2: EVQLQQSGPELVKPGASVKMSCKASGYTFTDYYMKWVKQSHGKSLEWIGDIIPSNGATFYNQKFKGKATLTVDRSSSTAYMHLNSLTSEDSAVYYCTRSHLLRASWFAYWGQGTLVTVSAASTKGPSVFPLAPSSKSTSGGTAALGCLVKDYFPEPVTVSWNSGALTSGVHTFPAVLQSSGLYSLSSVVTVPSSSLGTQTYICNVNHKPSNTKVDKKVEPKSCDKTHTCPPCPAPEAAGGPSVFLFPPKPKDTLMISRTPEVTCVVVDVSHEDPEVKFNWYVDGVEVHNAKTKPREEQYNSTYRVVSVLTVLHQDWLNGKEYKCKVSNKALPAPIEKTISKAKGQPREPQVCTLPPSRDELTKNQVSLSCAVKGFYPSDIAVEWESNGQPENNYKTTPPVLDSDGSFFLVSKLTVDKSRWQQGNVFSCSVMHEALHNRFTQKSLSLSPG
light 2: DFVMTQSPSSLTVTAGEKVTMSCKSSQSLLNSGNQKNYLTWYLQKPGQPPKLLIYWASTRESGVPDRFTGSGSGTDFTLTISSVQAEDLAVYYCQNDYSYPYTFGGGTKLEIKRTVAAPSVFIFPPSDEQLKSGTASVVCLLNNFYPREAKVQWKVDNALQSGNSQESVTEQDSKDSTYSLSSTLTLSKADYEKHKVYACEVTHQGLSSPVTKSFNRGEC
notes: CD3ε arm is the pseudoFab (dsTrasKO2); also called anti-CD3E-dsTrasKO2 × anti-CD123
B4: anti-CD3ε × anti-CD123 Wild Type (ID 36, alternative anti-CD3ε binding domain) (bispecific antibody)
light 1: DIVMTQTPLSLSVTPGQPASISCKSSQSLVHENLQTYLSWYLQKPGQSPQSLIYKVSNRFSGVPDRFSGSGSGTDFTLKISRVEAEDVGVYYCGQGTQYPFTFGSGTKVEIKRTVAAPSVFIFPPSDEQLKSGTASVVCLLNNFYPREAKVQWKVDNALQSGNSQESVTEQDSKDSTYSLSSTLTLSKADYEKHKVYACEVTHQGLSSPVTKSFNRGEC
heavy 1: not shown
heavy 2: EVQLQQSGPELVKPGASVKMSCKASGYTFTDYYMKWVKQSHGKSLEWIGDIIPSNGATFYNQKFKGKATLTVDRSSSTAYMHLNSLTSEDSAVYYCTRSHLLRASWFAYWGQGTLVTVSAASTKGPSVFPLAPSSKSTSGGTAALGCLVKDYFPEPVTVSWNSGALTSGVHTFPAVLQSSGLYSLSSVVTVPSSSLGTQTYICNVNHKPSNTKVDKKVEPKSCDKTHTCPPCPAPEAAGGPSVFLFPPKPKDTLMISRTPEVTCVVVDVSHEDPEVKFNWYVDGVEVHNAKTKPREEQYNSTYRVVSVLTVLHQDWLNGKEYKCKVSNKALPAPIEKTISKAKGQPREPQVCTLPPSRDELTKNQVSLSCAVKGFYPSDIAVEWESNGQPENNYKTTPPVLDSDGSFFLVSKLTVDKSRWQQGNVFSCSVMHEALHNRFTQKSLSLSPG
light 2: DFVMTQSPSSLTVTAGEKVTMSCKSSQSLLNSGNQKNYLTWYLQKPGQPPKLLIYWASTRESGVPDRFTGSGSGTDFTLTISSVQAEDLAVYYCQNDYSYPYTFGGGTKLEIKRTVAAPSVFIFPPSDEQLKSGTASVVCLLNNFYPREAKVQWKVDNALQSGNSQESVTEQDSKDSTYSLSSTLTLSKADYEKHKVYACEVTHQGLSSPVTKSFNRGEC
B5: anti-CD3ε × anti-CD123-dsTrasKO2 (ID 34) (bispecific antibody)
light 1: not shown
heavy 1: not shown
heavy 2: EVQLQQSGPELVKPGASVKMSCKASGYTFTDYYMKWVKQSHGKSLEWIGDIIPSNGATFYNQKFKGKATLTVDRSSSTAYMHLNSLTSEDSAVYYCTRSHLLRASWFAYWGQGTLVTVSAGGGGSGGGGSEVQLVESGGGLVQPGGSLRLSCAASGFNIKDTYIHWVRQAPGKCLEWVAEIYPTNGYTEYADSVKGRFTISADTSKNTAYLQMNSLRAEDTAVYYCSRWGGDGFYAMDYWGQGTLVTVSSDKTHTCPPCPAPEAAGGPSVFLFPPKPKDTLMISRTPEVTCVVVDVSHEDPEVKFNWYVDGVEVHNAKTKPREEQYNSTYRVVSVLTVLHQDWLNGKEYKCKVSNKALPAPIEKTISKAKGQPREPQVCTLPPSRDELTKNQVSLSCAVKGFYPSDIAVEWESNGQPENNYKTTPPVLDSDGSFFLVSKLTVDKSRWQQGNVFSCSVMHEALHNRFTQKSLSLSPG
light 2: not shown
B6: anti-TNP × anti-CD123-dsTrasKO2 Negative control (ID 43) (bispecific antibody, human IgG1, kappa, L234A L235A)
light 1: DVVMTQSPLSLPVTLGQPASISCRSSQSLVHSIGNTYLHWYQQRPGQSPRLLIYKVSNRFSGVPDRFSGSGSGTDFTLKISRVEAEDVGVYYCSQSTHVPFTFGQGTKLEIKRTVAAPSVFIFPPSDEQLKSGTASVVCLLNNFYPREAKVQWKVDNALQSGNSQESVTEQDSKDSTYSLSSTLTLSKADYEKHKVYACEVTHQGLSSPVTKSFNRGEC
heavy 1: not shown
heavy 2: EVQLQQSGPELVKPGASVKMSCKASGYTFTDYYMKWVKQSHGKSLEWIGDIIPSNGATFYNQKFKGKATLTVDRSSSTAYMHLNSLTSEDSAVYYCTRSHLLRASWFAYWGQGTLVTVSAGGGGSGGGGSEVQLVESGGGLVQPGGSLRLSCAASGFNIKDTYIHWVRQAPGKCLEWVAEIYPTNGYTEYADSVKGRFTISADTSKNTAYLQMNSLRAEDTAVYYCSRWGGDGFYAMDYWGQGTLVTVSSDKTHTCPPCPAPEAAGGPSVFLFPPKPKDTLMISRTPEVTCVVVDVSHEDPEVKFNWYVDGVEVHNAKTKPREEQYNSTYRVVSVLTVLHQDWLNGKEYKCKVSNKALPAPIEKTISKAKGQPREPQVCTLPPSRDELTKNQVSLSCAVKGFYPSDIAVEWESNGQPENNYKTTPPVLDSDGSFFLVSKLTVDKSRWQQGNVFSCSVMHEALHNRFTQKSLSLSPG
light 2: not shown
B7: anti-CD3ε × anti-CD123-dsTrasKO2 (ID 37, alternative anti-CD3ε binding domain) (bispecific antibody)
light 1: DIVMTQTPLSLSVTPGQPASISCKSSQSLVHENLQTYLSWYLQKPGQSPQSLIYKVSNRFSGVPDRFSGSGSGTDFTLKISRVEAEDVGVYYCGQGTQYPFTFGSGTKVEIKRTVAAPSVFIFPPSDEQLKSGTASVVCLLNNFYPREAKVQWKVDNALQSGNSQESVTEQDSKDSTYSLSSTLTLSKADYEKHKVYACEVTHQGLSSPVTKSFNRGEC
heavy 1: not shown
heavy 2: EVQLQQSGPELVKPGASVKMSCKASGYTFTDYYMKWVKQSHGKSLEWIGDIIPSNGATFYNQKFKGKATLTVDRSSSTAYMHLNSLTSEDSAVYYCTRSHLLRASWFAYWGQGTLVTVSAGGGGSGGGGSEVQLVESGGGLVQPGGSLRLSCAASGFNIKDTYIHWVRQAPGKCLEWVAEIYPTNGYTEYADSVKGRFTISADTSKNTAYLQMNSLRAEDTAVYYCSRWGGDGFYAMDYWGQGTLVTVSSDKTHTCPPCPAPEAAGGPSVFLFPPKPKDTLMISRTPEVTCVVVDVSHEDPEVKFNWYVDGVEVHNAKTKPREEQYNSTYRVVSVLTVLHQDWLNGKEYKCKVSNKALPAPIEKTISKAKGQPREPQVCTLPPSRDELTKNQVSLSCAVKGFYPSDIAVEWESNGQPENNYKTTPPVLDSDGSFFLVSKLTVDKSRWQQGNVFSCSVMHEALHNRFTQKSLSLSPG
light 2: not shown
notes: also called anti-CD3ε × CD123-dsTrasKO2

Target: T1, human CD123-Fc-His fusion protein …
Assay: SPR, Biacore 8K; CD123-Fc-His captured by anti-His, antibody as analyte, 1:1 Langmuir fit
Experimental: Binding of antigens to the antibody constructs was measured using surface plasmon resonance (SPR) with a BIAcore 8K instrument (GE Healthcare) with HBS-EP+ buffer (GE Healthcare). For binding kinetics and affinity determination human CD3εδ-Fc-His and human CD123-Fc-His fusion proteins (both from internal source) were used as antigens. The anti-His capture antibody (His capture kit, GE Life Sciences) was immobilized via primary amine groups (11000 RU) on a research grade CM5 chip (GE Life Sciences) using standard procedures. Antigens were captured by the anti-His capture chip surface at a flow rate of 10 μL/min for 90 sec to reach antibody binding levels between 10 and 30 RU. […] Dissociation was measured at 30 μL/min by injection of HBS-EP+ buffer for 1200 sec. The chip surface was regenerated by inject of regeneration buffer (His capture kit, GE Life Sciences). Sensorgrams were double referenced with a blank chip surface and H BS-EP+ buffer blanks. Data were fitted with a 1:1 Langmuir binding model for determination of kinetic and affinity constants ka, kd and KD using Biacore 8K Evaluation software v1.11.7442 (GE Healthcare).

Point of comparison: B3, Kd 0.257 nM. Against it:
- B1 — within 1.5-fold, 0.212 nM
- B2 — within 1.5-fold, 0.231 nM
- B4 — within 1.5-fold, 0.352 nM
- B5 — within 1.5-fold, 0.239 nM
- B6 — 2.1-fold higher, 0.546 nM
- B7 — 1.5-fold higher, 0.386 nM
